Results on 1 substance are retold here after patent US20220119536A1.

The assay addresses human VEGF-A (human) (UniProt P15692). In words: cell-based or functional assay.

EYLEA® (aflibercept) (Fc fusion), sequence (chain): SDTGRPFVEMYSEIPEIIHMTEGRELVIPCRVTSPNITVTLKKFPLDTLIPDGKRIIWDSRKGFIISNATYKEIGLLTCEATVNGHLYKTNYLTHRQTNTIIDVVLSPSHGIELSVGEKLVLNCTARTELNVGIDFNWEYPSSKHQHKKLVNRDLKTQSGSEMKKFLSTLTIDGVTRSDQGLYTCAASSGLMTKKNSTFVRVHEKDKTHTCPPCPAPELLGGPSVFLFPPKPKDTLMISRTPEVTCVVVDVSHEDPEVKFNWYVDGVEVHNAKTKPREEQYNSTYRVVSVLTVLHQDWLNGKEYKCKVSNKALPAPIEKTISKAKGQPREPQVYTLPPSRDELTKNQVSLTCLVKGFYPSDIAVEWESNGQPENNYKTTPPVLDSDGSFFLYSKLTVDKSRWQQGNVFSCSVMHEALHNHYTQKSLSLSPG
human VEGF-A (human), sequence (P15692 other isoform, or with tags, fused parts or gaps limits assumed): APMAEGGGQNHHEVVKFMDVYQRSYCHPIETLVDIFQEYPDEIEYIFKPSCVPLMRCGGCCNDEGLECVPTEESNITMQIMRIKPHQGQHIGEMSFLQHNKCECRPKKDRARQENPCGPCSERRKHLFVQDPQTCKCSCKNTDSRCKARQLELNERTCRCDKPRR

In the case of EYLEA® (aflibercept) (Fc fusion), the ERK1/2 phosphorylation: Bottom plateau (AlphaLISA counts) (AlphaLISA counts) was determined as 21700, the ERK1/2 phosphorylation: Top plateau (AlphaLISA counts) (AlphaLISA counts) was found to be 109000, the HRMEC proliferation Delta (area under the curve vs. basal): Bottom plateau (arbitrary units) (arbitrary units) amounted to 13.3 and the HRMEC proliferation Delta (area under the curve vs. basal): IC50 (pM) turned out to be 171 pM. The substance further showed an HRMEC proliferation Delta (area under the curve vs. basal): LogIC50 of -9.77; an HRMEC proliferation Delta (area under the curve vs. basal): Top plateau (arbitrary units) (arbitrary units) of 129; an IC50, inhibition of VEGF-induced p38 MAPK phosphorylation of 0.74 nM; a Src phosphorylation (Y419): Bottom plateau (AlphaLISA counts) (AlphaLISA counts) of 2210. The Src phosphorylation (Y419): IC50 amounted to 0.933 nM, the Src phosphorylation (Y419): LogIC50 was -9.37, the Src phosphorylation (Y419): Top plateau (AlphaLISA counts) (AlphaLISA counts) is 3420 and the concentration for full inhibition of VEGF-induced HRMEC proliferation is over 16 nM. Also, the p38-MAPK phosphorylation (T180/Y182): Bottom plateau (AlphaLISA counts) (AlphaLISA counts) turned out to be 8890, the p38-MAPK phosphorylation (T180/Y182): IC50 turned out to be 0.748 nM, the p38-MAPK phosphorylation (T180/Y182): LogIC50 is -9.13 and the p38-MAPK phosphorylation (T180/Y182): Top plateau (AlphaLISA counts) (AlphaLISA counts) stood at 23100.
